Tests used:
[1] = target: Wild-type mouse LAG-3 domains 1 and 2 (D1D2) displayed on yeast as N-terminal fusion to Aga2 (mouse; Saccharomyces cerevisiae) (UniProt Q61790); assay: yeast surface display titration, flow cytometry; monomeric D1D2 on yeast
[2] = target: the molecule itself; assay: flow-FRET in Expi293 cells; self-association
Method: Flow cytometry-based Förster resonance energy transfer (flow-FRET) assays have been utilized for live cell detection of proximal protein associations at distances <100 Å and was thus used to assess LAG-3 dimerization.
Expi293F cells (ThermoFisher Scientific) were transfected with a CFP:YFP:PEI ratio of 0.5:0.5:3 in a 24-well plate at 37° C. in 8% CO₂. Cells were analyzed after 36 hours using a BD LSRII flow cytometer. The 407 nm violet laser was used to excite CFP and the 488 nm blue laser was used to excite YFP. CFP was detected using a 450/50 bandpass filter after excitation with the violet laser and YFP was detected using a 530/30 bandpass filter after excitation with the blue laser.

Row | Molecule | Kd [1] | binding result [2]
1 | C9B7W anti-mouse LAG-3 antibody | 0.136 nM | 
2 | Full-length mouse LAG-3 fused to CFP or YFP, on Expi293F cells (receptor, UniProt Q61790 24-521, looked up, whole, on cells; Two plasmids, one CFP and one YFP fusion, co-transfected for flow-FRET; also called mLAG-3^CFP; mLAG-3^YFP; not shown: CFP or YFP from pECFP / pEYFP plasmids) GPGKELPVVWAQEGAPVHLPCSLKSPNLDPNFLRRGGVIWQHQPDSGQPTPIPALDLHQGMPSPRQPAPGRYTVLSVAPGGLRSGRQPLHPHVQLEERGLQRGDFSLWLRPALRTDAGEYHATVRLPNRALSCSLRLRVGQASMIASPSGVLKLSDWVLLNCSFSRPDRPVSVHWFQGQNRVPVYNSPRHFLAETFLLLPQVSPLDSGTWGCVLTYRDGFNVSITYNLKVLGLEPVAPLTVYAAEGSRVELPCHLPPGVGTPSLLIAKWTPPGGGPELPVAGKSGNFTLHLEAVGLAQAGTYTCSIHLQGQQLNATVTLAVITVTPKSFGLPGSRGKLLCEVTPASGKERFVWRPLNNLSRSCPGPVLEIQEARLLAERWQCQLYEGQRLLGATVYAAESSSGAHSARRISGDLKGGHLVLVLILGALSLFLLVAGAFGFHWWRKQLLLRRFSALEHGIQPFPAQRKIEELERELETEMGQEPEPEPEPQLEPEPRQL |  | binds

Reference: US20250198990A1 (Stanford University, published 2025)
